Reference: patent US20110135657A1 (published 2011)
Changes are numbered by the printed parent chain. Numbers in names are those of the source.

B1: 22H5 (antibody, human IgG2, lambda, V domains shown)
VH: QVTLKESGPVLVKPTETLTLTCTVSGFSLSNARMGVSWIRQPPGKALEWLAHIFSNDEKSYSTSLKSRLTISKDTSKSQVVLTMTNMDPVDTATYYCARILLVGAYYYCGMDVWGQGTTVTVSS
VL: SYVLTQPPSVSVAPGQTARITCGGNNIGSQSVHWYQQKPGQAPVLVVYDDSDRPSGIPERFSGSNSGNTATLTISRVEAGDEADYYCQVWDNTSDHVVFGGGTKLTVLG
notes: fully human monoclonal antibody; full chains H2/L2; also called 22H5 (WT)
B2: 22H5 variant, light chain N92Q (antibody, human IgG2, lambda, V domains shown)
VH: B1 VH
VL: B1 VL with N92Q
notes: variant chain entry already carries the change; also called #7, P60897.3
B3: 22H5 variant, heavy chain C109S (antibody, human IgG2, lambda, V domains shown)
VH: B1 VH with C109S
VL: B1 VL
notes: variant chain entry already carries the change; also called #23, P60899.2
B4: 22H5 variant, light chain S94A (antibody, human IgG2, lambda, V domains shown)
VH: B1 VH
VL: B1 VL with S94A
notes: variant chain entry already carries the change; also called #6, P60898.3
B5: 37D3 (antibody, human IgG2, kappa, V domains shown)
VH: EVHLVESGGGLAKPGGSLRLSCAASGFTFRNAWMSWVRQAPGKGLEWVGRIKSKTDGGTTDYAAPVKGRFTISRDDSKNTLYLQMNSLKTEDTAEYYCITDRVLSYYAMAVWGQGTTVTVSS
VL: DIVMTQSPLSLPVTPGEPASISCRSSQSLLHSNGYNFLDWYLQKPGQSPQLLIYLGSDRASGVPDRFSGSGSGTEFTLKISRVEAEDVGLYYCMQALQTPCSFGQGTKLEIKR
notes: fully human monoclonal antibody
B6: 17C3 (antibody, human IgG2, lambda, V domains shown)
VH: B1 VH with V103L, C109Y
VL: B1 VL with N92S, T93S
notes: fully human monoclonal antibody from XenoMouse hybridoma
B7: 46D11 (antibody, human IgG2, kappa, V domains shown)
VH: QVTLKEAGPVLVKPTETLTLTCTVSGFSLSNARMGVNWIRQPPGKALEWLAHIFSNDEKSYSTSLKSRLTISKDTSKSQVVLTMTNMDPVDTATYYCARVRIAGDYYYYYGMDVWGQGTTVTVSS
VL: DIQMTQSPSSVSASVGDRVTITCRASQGISIWLAWYQQKPGKAPKLLIYAASSLQSGVPSRFSGSGSGTDFTLTISSLQPEDFATYYCQQANDFPITFGQGTRLEIKR
notes: fully human monoclonal antibody; full chains H13/L13
B8: 18G1 (antibody, human IgG2, kappa, V domains shown)
VH: EVQLLESGGGLVQPGGSLRLSCAASRFTFSTYAMSWVRQAPGKGLEWVSGISGSGVSTHYADSVKGRFTISRDNSKNTLYLQMNSLRAEDTAVYYCAKSLIVVIVYALDHWGQGTLVTVSS
VL: EIVLTQSPGTLSLSPGERATLSCRASQNFDSSYLAWYQQKPGQAPRLLIYGTSSRATGIPDRFSGIGSGTDFTLTINRLEPEDFAMYYCQQYGGSPLTFGGGTEVEIKR
notes: fully human monoclonal antibody; full chains H5/L4
B9: 40D2 (antibody, human IgG2, kappa, V domains shown)
VH: QVQLQESGPGLVKPSQTLSLTCTVSGGSISSGGYNWSWIRQHPGKGLEWIGNIYYSGSTYYNPSLKSRVTISVDTSKNQFSLKLRSVTAADTAVYYCARENIVVIPAAIFAGWFDPWGQGTLVTVSS
VL: DFVMTQTPLSLSVTPGQPASISCKSSQSLLQSDGKTYLYWYLQKPGQPPHLLIYEVSNRFSGVPDRFSGSGSGTDFTLKISRVEAEDVGVYYCMQSIQLPRTFGQGTKVEIKR
notes: as for B5
B10: 16H7 variant, heavy chain I83T (antibody, human IgG2, lambda, V domains shown)
VH: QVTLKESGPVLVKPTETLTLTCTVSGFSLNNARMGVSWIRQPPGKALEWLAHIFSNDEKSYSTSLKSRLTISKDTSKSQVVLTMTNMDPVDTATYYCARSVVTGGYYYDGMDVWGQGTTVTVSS
VL: B1 VL with Q30E, N92G, T93N
B11: 16H7 variant, heavy chain Deletion of Y107 (antibody, human IgG2, lambda, V domains shown)
VH: QVTLKESGPVLVKPTETLTLTCTVSGFSLNNARMGVSWIRQPPGKALEWLAHIFSNDEKSYSTSLKSRLTISKDTSKSQVVLIMTNMDPVDTATYYCARSVVTGGYYDGMDVWGQGTTVTVSS
VL: B1 VL with Q30E, N92G, T93N
B12: 22H5 Heavy Chain, Insertion of Y107 (SEQ ID NO 405), as printed in Table 7 (antibody, human IgG2, lambda, V domains shown)
VH: B7 VH with A7S, S30N, N37S, T83I, V100S, R101V, I102V, A103T, D105G, Y110D
VL: B1 VL
B13: 16H7 variant, heavy chain E16Q + V24F + I83T + S100I + T119L (antibody, human IgG2, lambda, V domains shown)
VH: B1 VH with E16Q, V24F, S30N, L101V, L102V, V103T, A105G, C109D, T119L
VL: B1 VL with Q30E, N92G, T93N
B14: 16H7 variant, heavy chain D88R + P89A + V90E + S100I (antibody, human IgG2, lambda, V domains shown)
VH: B1 VH with S30N, T83I, D88R, P89A, V90E, L101V, L102V, V103T, A105G, C109D
VL: B1 VL with Q30E, N92G, T93N
B15: 16H7 variant, heavy chain D88R + P89A + V90E (antibody, human IgG2, lambda, V domains shown)
VH: QVTLKESGPVLVKPTETLTLTCTVSGFSLNNARMGVSWIRQPPGKALEWLAHIFSNDEKSYSTSLKSRLTISKDTSKSQVVLIMTNMRAEDTATYYCARSVVTGGYYYDGMDVWGQGTTVTVSS
VL: B1 VL with Q30E, N92G, T93N
B16: 16H7 variant, heavy chain I83K (antibody, human IgG2, lambda, V domains shown)
VH: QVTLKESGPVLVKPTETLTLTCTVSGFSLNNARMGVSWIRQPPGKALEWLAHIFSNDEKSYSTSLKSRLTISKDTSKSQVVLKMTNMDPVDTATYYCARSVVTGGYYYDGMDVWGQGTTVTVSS
VL: B1 VL with Q30E, N92G, T93N
B17: 16H7 variant, light chain D49A + D91A (antibody, human IgG2, lambda, V domains shown)
VH: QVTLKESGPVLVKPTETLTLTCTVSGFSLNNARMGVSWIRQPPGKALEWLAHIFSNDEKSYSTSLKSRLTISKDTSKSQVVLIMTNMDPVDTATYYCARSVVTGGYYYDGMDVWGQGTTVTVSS
VL: B1 VL with Q30E, D49A, D91A, N92G, T93N
B18: 16H7 variant, heavy chain V24F (antibody, human IgG2, lambda, V domains shown)
VH: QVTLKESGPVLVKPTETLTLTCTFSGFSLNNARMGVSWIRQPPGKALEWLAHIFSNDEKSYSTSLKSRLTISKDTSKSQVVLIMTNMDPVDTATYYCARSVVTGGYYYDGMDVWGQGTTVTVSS
VL: B1 VL with Q30E, N92G, T93N
B19: 16H7 variant, heavy chain S100I (antibody, human IgG2, lambda, V domains shown)
VH: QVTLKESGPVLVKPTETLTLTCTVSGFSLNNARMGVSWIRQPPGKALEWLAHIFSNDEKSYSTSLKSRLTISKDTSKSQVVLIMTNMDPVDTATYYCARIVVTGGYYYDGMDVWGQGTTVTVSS
VL: B1 VL with Q30E, N92G, T93N
B20: 16H7 variant, heavy chain D109S (antibody, human IgG2, lambda, V domains shown)
VH: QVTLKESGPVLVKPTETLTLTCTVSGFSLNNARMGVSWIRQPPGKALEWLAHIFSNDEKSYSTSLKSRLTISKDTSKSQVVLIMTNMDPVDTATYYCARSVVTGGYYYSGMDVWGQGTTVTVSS
VL: B1 VL with Q30E, N92G, T93N
B21: 16H7 (antibody, human IgG2, lambda, V domains shown)
VH: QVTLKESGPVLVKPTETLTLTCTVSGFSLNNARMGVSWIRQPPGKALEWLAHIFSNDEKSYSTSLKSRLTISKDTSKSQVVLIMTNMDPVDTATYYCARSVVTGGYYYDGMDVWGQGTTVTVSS
VL: B1 VL with Q30E, N92G, T93N
B22: 16H7 variant, light chain D49Y (antibody, human IgG2, lambda, V domains shown)
VH: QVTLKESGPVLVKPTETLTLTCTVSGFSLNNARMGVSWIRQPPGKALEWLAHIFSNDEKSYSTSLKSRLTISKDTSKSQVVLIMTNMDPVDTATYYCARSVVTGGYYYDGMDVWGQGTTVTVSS
VL: B1 VL with Q30E, D49Y, N92G, T93N
B23: 16H7 variant, heavy chain E16Q + V24F + I83T (antibody, human IgG2, lambda)
heavy: QVTLKESGPVLVKPTQTLTLTCTFSGFSLNNARMGVSWIRQPPGKALEWLAHIFSNDEKSYSTSLKSRLTISKDTSKSQVVLTMTNMDPVDTATYYCARSVVTGGYYYDGMDVWGQGTTVTVSSASTKGPSVFPLAPCSRSTSESTAALGCLVKDYFPEPVTVSWNSGALTSGVHTFPAVLQSSGLYSLSSVVTVPSSNFGTQTYTCNVDHKPSNTKVDKTVERKCCVECPPCPAPPVAGPSVFLFPPKPKDTLMISRTPEVTCVVVDVSHEDPEVQFNWYVDGVEVHNAKTKPREEQFNSTFRVVSVLTVVHQDWLNGKEYKCKVSNKGLPAPIEKTISKTKGQPREPQVYTLPPSREEMTKNQVSLTCLVKGFYPSDIAVEWESNGQPENNYKTTPPMLDSDGSFFLYSKLTVDKSRWQQGNVFSCSVMHEALHNHYTQKSLSLSPGK
light: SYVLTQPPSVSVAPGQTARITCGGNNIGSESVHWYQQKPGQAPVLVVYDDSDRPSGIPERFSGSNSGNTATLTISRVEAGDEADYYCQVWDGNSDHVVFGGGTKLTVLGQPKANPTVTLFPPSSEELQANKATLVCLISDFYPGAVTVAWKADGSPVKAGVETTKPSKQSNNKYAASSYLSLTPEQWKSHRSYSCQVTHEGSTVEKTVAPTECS
B24: 16H7 variant, heavy chain E16Q + V24F + I83T + T119L (antibody, human IgG2, lambda)
heavy: B23 heavy with T119L
light: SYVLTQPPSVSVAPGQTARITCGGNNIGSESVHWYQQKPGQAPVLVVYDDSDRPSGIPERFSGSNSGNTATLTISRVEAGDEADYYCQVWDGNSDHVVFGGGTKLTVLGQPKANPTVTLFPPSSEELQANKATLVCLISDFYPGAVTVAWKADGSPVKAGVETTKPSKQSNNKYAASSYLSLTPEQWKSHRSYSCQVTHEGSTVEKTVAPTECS

target: T1, His-tagged human recombinant β-Klotho (human, UniProt Q86Z14 53-997, limits assumed); assay: Biacore, 100 nM mAb over His-tagged human β-Klotho captured on anti-His antibody
T1 construct: also called β-Klotho captured on anti-His; human β-Klotho; not shown: His tag
Experimental: Briefly, mouse anti-His antibody (Qiagen, Valencia, Calif.) was immobilized on a CM5 chip using amine coupling reagents (General Electronics, Piscataway, N.J.). His-tagged human recombinant β-Klotho was captured on the second flow cell to ˜100RU. The first flow cell was used as a background control. 100 nM mAbs were diluted in PBS plus 0.1 mg/ml BSA, 0.005% P20 and injected over the β-Klotho captured on anti-His antibody surface. For kinetic measurement, 0.78-100 nM mAbs diluted in PBS plus 0.1 mg/ml BSA, 0.005% P20 were injected over the β-Klotho surface.

Row | koff [s⁻¹] | Binder
1 | 0.00031 | B1
2 | 0.00052 | B2
3 | 0.0003 | B3
4 | 0.00035 | B4

target: T2, soluble human β-Klotho (Biacore, Example 8) (human, UniProt Q86Z14 53-996, limits assumed); assay: Biacore competition binning; test antibody injected over soluble receptor captured on immobilized 24H11, 17D8 or 1A2.1
T2 construct: also called soluble β-Klotho
From the text: Soluble human FGFR1c/β-Klotho ECD-Fc complex or β-Klotho was then captured on the immobilized antibody surfaces.

Row | binding result | Binder
5 | binds | B5
6 | binds | B6
7 | binds | B7
8 | binds | B8
9 | binds | B9

target: T3, human FGF21 receptor (FGF21R): full length human FGFR1c and full length human β-Klotho co-expressed at the … (human, UniProt P11362 22-822; Q86Z14 53-1044); assay: cell-based or functional assay

Row | EC50 (nM), Erk-phosphorylation, human adipocyte assay [nM] | Binder
10 | 0.73 | B10
11 | 1.04 | B11
12 | 0.51 | B12
13 | 0.24 | B13
14 | 0.14 | B14
15 | 0.35 | B15
16 | 2.27 | B1
17 | 0.39 | B16
18 | 1.4 | B17
19 | 0.75 | B18
20 | 0.17 | B19
21 | 0.31 | B20
22 | 0.53 | B21
23 | 3.33 | B2
24 | 0.6 | B22
25 | 1.98 | B4
26 | 0.38 | B23
27 | 0.36 | B24

target: T3, human FGF21 receptor (FGF21R): full …; assay: cell-based or functional assay; remark: another data set of the same source

Row | Activity (%) = % of FGF21 activity, luciferase reporter, AM-1/D FGFR1c+β-Klotho Luc clone; antibody combined with isotype IgG2k control | Binder
28 | 23.5 % of FGF21 activity | B21
